According to patent US20240018237A1 (SICHUAN KELUN BIOTECH BIOPHARMACEUTICAL, published 2024):
Numbering of substitutions follows the chain as printed.

B1: 38F8-Hu56 (antibody, human IgG1, kappa, V domains shown)
VH: EVQLVESGGGLVQPGGSLRLSCAASGFTFSNYAMSWVRQAPEKRLEWVASISSGGPTYYPDSVKGRFTVSRDNSKNTLYLQMNSLRAEDTAVYYCARGYRYDVNWYFDVWGAGTMVTVSS
VL: DIQMTQSPSSLSASVGDRVTITCQASQDINSYLTWFQQKPGKSPKTLIHRANRLVTGVPSRFSGSGSGTDFTFTISSLQPEDIATYYCLQYDEFPYTFGGGTKVEIKR
notes: humanized, human IgG1 / kappa
B2: 38F8-Hu66 (antibody, human IgG1, kappa, V domains shown)
VH: B1 VH with E1Q, Q13K, V69I, S74A, T77S
VL: B1 VL
notes: humanized, human IgG1 / kappa
B3: 38F8-Hu68 (antibody, human IgG1, kappa, V domains shown)
VH: B1 VH with E1Q, Q13K, V69I, S74A, T77S
VL: B1 VL with F71Y, T85I
notes: humanized, human IgG1 / kappa
B4: 38F8-Hu67 (antibody, human IgG1, kappa, V domains shown)
VH: B1 VH with E1Q, Q13K, V69I, S74A, T77S
VL: B1 VL with N30S, S31N, F71Y, T85I
notes: humanized, human IgG1 / kappa
B5: 38F8-Hu64 (antibody, human IgG1, kappa, V domains shown)
VH: B1 VH with E1Q, Q13K, V69I, S74A, T77S
VL: B1 VL with N30S, S31N
notes: humanized, human IgG1 / kappa
B6: 38F8-Hu58 (antibody, human IgG1, kappa, V domains shown)
VH: B1 VH
VL: B1 VL with F71Y, T85I
notes: humanized, human IgG1 / kappa
B7: 19F6-Hu35V5 (antibody, human IgG1, kappa, V domains shown)
VH: QVQLQESGPGLVKPSQTLSLTCTVSGYSITSDYAWNWIRQFPGKGLEWIGYISYSGSIRYNPSLKSRVTISRDTSKNQFSLKLSSVTAADTAVYYCARGEITYYFDYWGQGTLVTVSS
VL: ETTLTQSPAFMSATPGDKVTISCKASTDIDDDMNWYQQKPGKPPKLIISEGNTLRPGIPPRFSSSGYGTDFTFTINNIKSEDAATYYCLQSNDLPLTFGQGTKLEIKR
notes: humanized, human IgG1 / kappa
B8: 19F6-Hu22 (antibody, human IgG1, kappa, V domains shown)
VH: B7 VH with Q16E, F41P, I49M, S66D, V68I
VL: DIQMTQSPSSLSASVGDRVTITCITTTDIDDDMNWYQQKPGKAPKLLISEGNTLQSGVPSRFSGSGYGTDFTLTISSLQPEDFATYYCLQSNDLPLTFGQGTKLEIKR
notes: humanized, human IgG1 / kappa
B9: 19F6-Hu34 (antibody, human IgG1, kappa, V domains shown)
VH: B7 VH
VL: DIQMTQSPSSLSASVGDRVTITCQTSTDIDDDLNWYQQKPGKPPKLLISEGNTLETGVPSRFSGSGSGTDFTFTISSLQPEDIADYYCLQSNDLPLTFGAGTKLEIKR
notes: humanized, human IgG1 / kappa
B10: 19F6-Hu35V3 (antibody, human IgG1, kappa, V domains shown)
VH: B7 VH
VL: B7 VL with D28S, N77K, K79E
notes: humanized, human IgG1 / kappa
B11: 19F6-Hu35V2 (antibody, human IgG1, kappa, V domains shown)
VH: B7 VH
VL: B7 VL with D31S, K42E, N77K
notes: humanized, human IgG1 / kappa
B12: 19F6-Hu11 (antibody, human IgG1, kappa, V domains shown)
VH: B7 VH with Q16E, S25T, F41P, I49M, N61K, S66D, V68I
VL: B8 VL with Q55R, S56P
notes: humanized, human IgG1 / kappa
B13: 19F6-Hu35 (antibody, human IgG1, kappa, V domains shown)
VH: B7 VH
VL: B7 VL with K42E, K79E, T85D
notes: humanized, human IgG1 / kappa
B14: 19F6-Hu21 (antibody, human IgG1, kappa, V domains shown)
VH: B7 VH with Q16E, F41P, I49M, S66D, V68I
VL: B8 VL with Q55R, S56P
notes: humanized, human IgG1 / kappa
B15: 19F6-Hu12 (antibody, human IgG1, kappa, V domains shown)
VH: B7 VH with Q16E, S25T, F41P, I49M, N61K, S66D, V68I
VL: B8 VL
notes: humanized, human IgG1 / kappa
B16: 19F6-Hu15 (antibody, human IgG1, kappa, V domains shown)
VH: B7 VH with Q16E, S25T, F41P, I49M, N61K, S66D, V68I
VL: B7 VL with K42E, K79E, T85D
notes: humanized, human IgG1 / kappa
B17: 19F6-Hu35V9 (antibody, human IgG1, kappa, V domains shown)
VH: B7 VH
VL: B7 VL with D28S, N76R, N77K, K79E, T85D
notes: humanized, human IgG1 / kappa
B18: 19F6-Hu35V8 (antibody, human IgG1, kappa, V domains shown)
VH: B7 VH
VL: B7 VL with D31N, K79Q
notes: humanized, human IgG1 / kappa
B19: 19F6-Hu35V4 (antibody, human IgG1, kappa, V domains shown)
VH: B7 VH
VL: B7 VL with D28S, D31N, N77K, K79E
notes: humanized, human IgG1 / kappa
B20: 19F6-Hu31 (antibody, human IgG1, kappa, V domains shown)
VH: B7 VH
VL: B8 VL with Q55R, S56P
notes: humanized, human IgG1 / kappa
B21: 19F6-Hu35V6 (antibody, human IgG1, kappa, V domains shown)
VH: B7 VH
VL: B7 VL with D31N
notes: humanized, human IgG1 / kappa
B22: 19F6-Hu35V7 (antibody, human IgG1, kappa, V domains shown)
VH: B7 VH
VL: B7 VL with D28S, K79Q
notes: humanized, human IgG1 / kappa
B23: 19F6-Hu23 (antibody, human IgG1, kappa, V domains shown)
VH: B7 VH with Q16E, F41P, I49M, S66D, V68I
VL: B8 VL with I24R, T25A, T26S, S49Y
notes: humanized, human IgG1 / kappa
B24: 19F6-Hu35V10 (antibody, human IgG1, kappa, V domains shown)
VH: B7 VH
VL: B7 VL with D31S, N76R, N77K, K79E, T85D
notes: humanized, human IgG1 / kappa
B25: 19F6-Hu24 (antibody, human IgG1, kappa, V domains shown)
VH: B7 VH with Q16E, F41P, I49M, S66D, V68I
VL: B9 VL
notes: humanized, human IgG1 / kappa
B26: 19F6-Hu33 (antibody, human IgG1, kappa, V domains shown)
VH: B7 VH
VL: B8 VL with I24R, T25A, T26S, S49Y
notes: humanized, human IgG1 / kappa
B27: 19F6-Hu25 (antibody, human IgG1, kappa, V domains shown)
VH: B7 VH with Q16E, F41P, I49M, S66D, V68I
VL: B7 VL with K42E, K79E, T85D
notes: humanized, human IgG1 / kappa
B28: 19F6-Hu13 (antibody, human IgG1, kappa, V domains shown)
VH: B7 VH with Q16E, S25T, F41P, I49M, N61K, S66D, V68I
VL: B8 VL with I24R, T25A, T26S, S49Y
notes: humanized, human IgG1 / kappa
B29: 19F6-Hu32 (antibody, human IgG1, kappa, V domains shown)
VH: B7 VH
VL: B8 VL
notes: humanized, human IgG1 / kappa

target: T1, human ROR1 (full-length, on the cell surface) (human, UniProt Q01973 30-937); experiment: flow cytometry, Jeko-1 cells
T1 construct: whole, on cells; the tumour cell lines carry their own ROR1; also called Ba/F3-ROR1 cells; Jeko-1
Description: (§1) The affinities of the anti-human ROR1 humanized antibodies to Ba/F3-ROR1, Jeko-1, HT-29 and A549 cells were detected by flow cytometry. The specific experimental steps were as follows: the BaBF3-ROR1, Jeko-1, HT-29 and A549 cells were incubated with the purified humanized antibodies of different concentration gradients on ice for 30 minutes, and the anti-ROR1 antibody UC961 with human IgG1 and the anti-TNP antibody were used as positive and negative controls, respectively.

T1 sequence (Q01973 30-937): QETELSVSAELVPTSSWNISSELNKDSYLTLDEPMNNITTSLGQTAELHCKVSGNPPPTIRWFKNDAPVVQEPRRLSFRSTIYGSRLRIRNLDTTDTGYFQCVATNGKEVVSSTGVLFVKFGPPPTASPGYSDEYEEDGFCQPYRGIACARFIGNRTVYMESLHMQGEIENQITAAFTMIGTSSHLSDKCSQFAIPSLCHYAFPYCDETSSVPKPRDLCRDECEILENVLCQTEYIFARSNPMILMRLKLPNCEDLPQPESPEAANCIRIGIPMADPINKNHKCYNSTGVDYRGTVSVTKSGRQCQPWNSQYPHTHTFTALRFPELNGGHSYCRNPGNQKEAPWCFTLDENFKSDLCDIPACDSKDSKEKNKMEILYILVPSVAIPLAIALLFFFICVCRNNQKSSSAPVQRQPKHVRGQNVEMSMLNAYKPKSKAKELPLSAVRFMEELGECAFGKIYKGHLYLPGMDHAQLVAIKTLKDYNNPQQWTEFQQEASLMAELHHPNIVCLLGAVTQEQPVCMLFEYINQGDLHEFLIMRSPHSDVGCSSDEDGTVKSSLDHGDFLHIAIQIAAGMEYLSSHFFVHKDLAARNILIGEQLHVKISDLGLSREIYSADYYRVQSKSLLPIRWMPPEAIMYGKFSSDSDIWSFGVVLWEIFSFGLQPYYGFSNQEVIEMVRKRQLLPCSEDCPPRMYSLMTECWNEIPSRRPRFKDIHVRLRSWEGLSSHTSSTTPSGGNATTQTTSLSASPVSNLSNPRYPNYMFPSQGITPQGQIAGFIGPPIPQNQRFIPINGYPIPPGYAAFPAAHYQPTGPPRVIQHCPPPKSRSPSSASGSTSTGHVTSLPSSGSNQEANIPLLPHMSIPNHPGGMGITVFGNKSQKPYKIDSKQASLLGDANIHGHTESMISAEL

| EC50 | Binder |
| --- | --- |
| 100 pM | B1 |
| 110 pM | B2 |
| 110 pM | B3 |
| 100 pM | B4 |
| 90 pM | B5 |
| 90 pM | B6 |
| 130 pM | B7 |
| 130 pM | B8 |
| 180 pM | B9 |
| 180 pM | B10 |
| 190 pM | B11 |
| 150 pM | B12 |
| 150 pM | B13 |
| 220 pM | B14 |
| 170 pM | B15 |
| 210 pM | B16 |
| 280 pM | B17 |
| 180 pM | B18 |
| 200 pM | B19 |
| 180 pM | B20 |
| 200 pM | B21 |
| 220 pM | B22 |
| 210 pM | B23 |
| 350 pM | B24 |
| 200 pM | B25 |
| 150 pM | B26 |
| 190 pM | B27 |
| 170 pM | B28 |
| 180 pM | B29 |

target: T1, human ROR1 (full-length, on the cell …); experiment: flow cytometry, HT-29 cells
Description: as §1

| EC50 | Binder |
| --- | --- |
| 420 pM | B1 |
| 440 pM | B2 |
| 550 pM | B3 |
| 610 pM | B4 |
| 420 pM | B5 |
| 430 pM | B6 |
| 170 pM | B7 |
| 160 pM | B8 |
| 190 pM | B9 |
| 170 pM | B10 |
| 180 pM | B11 |
| 80 pM | B12 |
| 90 pM | B13 |
| 180 pM | B14 |
| 110 pM | B15 |
| 70 pM | B16 |
| 170 pM | B17 |
| 120 pM | B18 |
| 300 pM | B19 |
| 100 pM | B20 |
| 160 pM | B21 |
| 180 pM | B22 |
| 620 pM | B23 |
| 170 pM | B24 |
| 250 pM | B25 |
| 780 pM | B26 |
| 80 pM | B27 |
| 750 pM | B28 |
| 90 pM | B29 |

target: T1, human ROR1 (full-length, on the cell …); experiment: flow cytometry, Ba/F3-ROR1 cells

| EC50 | Binder |
| --- | --- |
| 170 pM | B7 |
| 300 pM | B8 |
| 530 pM | B9 |
| 180 pM | B10 |
| 190 pM | B11 |
| 250 pM | B12 |
| 380 pM | B13 |
| 360 pM | B14 |
| 430 pM | B15 |
| 330 pM | B16 |
| 210 pM | B17 |
| 180 pM | B18 |
| 280 pM | B19 |
| 300 pM | B20 |
| 170 pM | B21 |
| 190 pM | B22 |
| 350 pM | B23 |
| 270 pM | B24 |
| 390 pM | B25 |
| 350 pM | B26 |
| 610 pM | B27 |
| 290 pM | B28 |
| 440 pM | B29 |

target: T1, human ROR1 (full-length, on the cell …); experiment: flow cytometry, A549 cells
Description: as §1

| EC50 | Binder |
| --- | --- |
| 320 pM | B1 |
| 350 pM | B2 |
| 540 pM | B3 |
| 400 pM | B4 |
| 310 pM | B5 |
| 320 pM | B6 |
| 160 pM | B7 |
| 250 pM | B8 |
| 130 pM | B9 |
| 100 pM | B10 |
| 100 pM | B11 |
| 170 pM | B12 |
| 80 pM | B13 |
| 310 pM | B14 |
| 160 pM | B15 |
| 90 pM | B16 |
| 140 pM | B17 |
| 90 pM | B18 |
| 150 pM | B19 |
| 90 pM | B20 |
| 80 pM | B21 |
| 100 pM | B22 |
| 140 pM | B23 |
| 120 pM | B24 |
| 240 pM | B25 |
| 250 pM | B26 |
| 130 pM | B27 |
| 470 pM | B28 |
| 90 pM | B29 |

target: T1, human ROR1 (full-length, on the cell …); experiment: flow cytometry, Ba/F3-ROR1 cells; remark: another data set of the same source
Description: as §1

| EC50 | Binder |
| --- | --- |
| 1090 pM | B1 |
| 930 pM | B2 |
| 2190 pM | B3 |
| 840 pM | B4 |
| 1200 pM | B5 |
| 1450 pM | B6 |
